We go through one molecule from US20100055117A1 (published 2010).

Assay [1] has as its target T1, FRL (murine FMNL1 homologue) peptide on HLA-A*02:01 (human).
T1 peptide: RLPERMNTL
In words: killing.

Assay [2] deals with T2, FMNL1/KW13 peptide on HLA-A*02:01 (human).
T2 peptide: RLPERMTTL
In words: multimer staining.

B1: TCR of T cell clone SC22 (Vα14J41; Vβ14J2.5) (TCR)
alpha TRAV38-2/DV8*01; Vα14 TRAJ41*01; J41 CDR3: AYENSGYALNF
beta TRBV27*01; Vβ14 TRBJ2-5*01; Jβ2.5 CDR3: ASSFLGETQYF
As to B1, the binding result in assay [1] and in assay [2] was “recognises” each time.
